Experimental data taken from US10907134B2, “Mutated genes for the catalytic protein of oplophorus luciferase and use thereof” (JNC CORPORATION, priority 2013, dated 2021).

What was measured:
[1] = Luminescence activity of ZZ-fused KAZ mutants in crude enzyme solutions; format: biochemical; details: Table 4; ZZ-fused (pCold-ZZ-P-); 1 μL crude enzyme solution, 1 mM DTT; 1 μg coelenterazine
Procedure: To express the ZZ-fused KAZ mutants in E. coli, the recombinant plasmid prepared in EXAMPLE 6 was used. Crude enzyme solutions were prepared in the same manner as EXAMPLE 4 using the E. coli BL21 strain (Novagen, Madison, Wis.) as a host cell. The resultant crude enzyme solution, 5 μL, was subjected to SDS-PAGE analysis to confirm expression of the proteins (FIG. 2). In FIG. 2, M and 1 to 18 are the same as described in FIG. 1.
DTT was added to the crude enzyme solution obtained in EXAMPLE 7 at a final concentration of 1 mM and the mixture was allowed to stand in an ice water for more than 5 hours. A luminescence reaction was started by adding 1 μL of the crude enzyme solution to 100 μL of TE containing 1 μg of coelenterazine (manufactured by JNC Corp.). The luminescence activity was determined using a luminometer (manufactured by Atto Inc.: AB2200) for 60 seconds, and the maximum intensity of luminescence (Imax) was shown as relative luminescence activity.
To express the ZZ-fused KAZ mutants in E. coli, the recombinant plasmid constructed in EXAMPLE 16 and pCold-ZZ-P-V44I-KAZ, pCold-ZZ-P-A54I-KAZ, pCold-ZZ-P-Y138I-KAZ prepared in EXAMPLE 6 were used. Crude enzyme solutions were prepared in the same manner as EXAMPLE 7, using the E. coli BL21 strain (Novagen, Madison, Wis.) as a host cell. DTT was added to the crude enzyme solutions at a final concentration of 1 mM. The mixtures were allowed to stand over 5 hours on ice, and luminescence activities were then assayed. The luminescence activities were determined by the method described in EXAMPLE 8. Also, 5 μL of the resultant crude enzyme solutions were subjected to SDS-PAGE analysis to confirm protein expression (FIG. 4). In FIG. 4, M and 1 to 9 are as follows. M: molecular weight size markers; 1: ZZ-P-KAZ; 2: ZZ-P-KAZ-V44I; 3: ZZ-P-KAZ-A54I; 4: ZZ-P-KAZ-Y138I; 5: ZZ-P-KAZ-V44I-A54I; 6: ZZ-P-KAZ-V44I-Y138I; 7: ZZ-P-KAZ-A54I-Y138I; 8: ZZ-P-KAZ-V44I-A54I-Y138I; and 9: ZZ-P-dnKAZ.

[2] = system: CHO-K1 cells; experiment: Luminescence activity of KAZ mutants expressed in animal culture cells with signal peptide of Gaussia luciferase for secretion; format: cell-based, Chinese hamster; details: Table 5, pcDNA3-GLsp- vectors, CHO-K1, 48 hours, 0.5 μg coelenterazine; for Relative Luminescence Activity (Imax) (%) Cell Extracts: 5 μL cell extracts; for Relative Luminescence Activity (Imax) (%) Culture Medium: 5 μL culture medium
Procedure: Chinese hamster ovary cell line CHO-K1 was cultured in Ham's F-12 medium (manufactured by Wako Pure Chemical Industries, Ltd.) supplemented with 10% (v/v) fetal bovine serum (manufactured by Biowest Inc.). The CHO-K1 cells were plated in a 6-well plate in 1×10^5 cells/well/2 mL medium (n=2) and cultured in an incubator at 37° C. in 5% (v/v) CO2. After 24 hours, the purified recombinant plasmid was transfected to CHO-K1 cells using a FuGene HD transfection kit (manufactured by Promega Corp.), which was provided for subsequent experiment. Specifically, 1 μg of the recombinant plasmid pGL4.13 [Luc2/sv40], 0.1 μg of the internal standard vector and 3 μL of FuGene HD were added to 100 μL of the medium, which was allowed to stand at room temperature for 15 minutes. Subsequently, 100 μL of the DNA-FuGene complex was added to the cells in the 6 wells. After incubation for 48 hours, the culture medium was collected. On the other hand, the KAZ mutants expressed in the cells were washed 3 times with 3 mL of 1×PBS, then suspended in 1 mL of 1×PBS and disrupted on ice by ultrasonication, which was used as enzyme solutions of the cell-extracts of KAZ mutants.
A luminescence reaction was started by adding 5 μL of the culture media and cell extracts obtained in EXAMPLE 10 to 100 μL of 30 mM Tris-HCl (pH 7.6)-10 mM EDTA (manufactured by Wako Pure Chemical Industries, Ltd.) containing 0.5 μg of coelenterazine (manufactured by INC Corp.). The luminescence activity was determined using a luminometer (manufactured by Atto Inc.: AB2200) for 60 seconds, and the maximum intensity of luminescence (Imax) was defined as a percentage.
Culture media of the KAZ mutants with two amino acid substitutions and KAZ mutants with three amino acid substitutions and the enzyme solutions of the cell-extracts of KAZ mutants were prepared in the same manner as EXAMPLE 10.
In the resultant enzyme solutions and the enzyme solutions of the cell-extracts of KAZ mutants, luminescence activities were determined in the same manner as EXAMPLE 11.

[3] = Luminescence activity of KAZ mutants (pCold II, E. coli) in supernatant and precipitate of crude enzyme solution; format: biochemical; details: Table 3, pCold II, E. coli BL21, 0.5 μg coelenterazine, 60 seconds; for Relative Luminescence Activity (Imax) Precipitate: 5 μL precipitate; for Relative Luminescence Activity (Imax) Supernatant: 5 μL supernatant
Procedure: In order to express the KAZ mutants in E. coli, the recombinant plasmid prepared in EXAMPLE 3 was used. The E. coli BL21 strain (Novagen, Madison, Wis.) was used as a host cell. The BL21 strain carrying the recombinant plasmid was incubated in 5 mL of Luria-Bertani medium (hereinafter designated as LB medium) containing ampicillin (50 μg/mL) at 37° C. for 18 hours. This seed culture, 0.1 mL, was inoculated to 10 mL of LB medium and incubated for 3 hours, followed by cooling in an ice-water bath for 1 hour. IPTG was added to the culture medium at a final concentration of 1 mM, followed by incubation at 15° C. for further 20 hours. After completion of the incubation, 1 mL of the cultured medium was harvested by centrifugation at 10,000 rpm for 2 minutes. The thus collected E. coli cells were suspended in 0.5 mL of 30 mM Tris-HCl (pH 7.6)-10 mM EDTA (manufactured by Wako Pure Chemical Industries, Ltd.) (hereinafter designated as TE). The E. coli cells were disrupted by sonication for 3 seconds using a Branson Model 250 Sonifier (Danbury, Conn.) to give a crude enzyme solution. After 0.5 mL of the crude enzyme solution was further centrifuged at 10,000 rpm for 2 minutes to separate the supernatant from the precipitate, the precipitate was suspended in 0.5 mL of TE. Then 20 μL each of the supernatant and precipitate were analyzed by SDS-PAGE to confirm the presence or absence of soluble and insoluble proteins. The results are shown in FIG. 1, wherein M and 1 to 17 denote: M: molecular weight size markers; 1: KAZ; 2 KAZ-A4E; 3: KAZ-Q11R; 4: KAZ-Q18L; 5: KAZ-L27V; 6: KAZ-A33N; 7: KAZ-K43R; 8: KAZ-V44I; 9: KAZ-A54I; 10: KAZ-F68D; 11: KAZ-L72Q; 12: KAZ-M75K; 13: KAZ-I90V; 14: KAZ-P115E; 15: KAZ-Q124K; 16: KAZ-Y138I; 17: KAZ-N166R and 18: dnKAZ.
A luminescence reaction was started by the addition of 5 μL each of the supernatant and precipitate obtained in EXAMPLE 4 to 100 μL of TE containing 0.5 μg of coelenterazine (manufactured by JNC Corp.). The luminescence activity was measured for 60 seconds using a luminometer (manufactured by Atto Corp.: AB2200) and expressed in terms of relative luminescence activity (Imax).
To express the KAZ mutants with two amino acid substitutions and three amino acid substitutions in E. coli using a pCold II vector, the recombinant plasmid constructed in EXAMPLE 13 and pCold-V44I-KAZ, pCold-A54I-KAZ, pCold-Y138I-KAZ prepared in EXAMPLE 3 were used. The supernatant and precipitate of each crude enzyme solution were prepared in the same manner as EXAMPLE 4, using the E. coli BL21 starin (Novagen, Madison, Wis.) as a host cell. The supernatant and precipitate, 20 μL each, were subjected to SDS-PAGE analysis to confirm the presence or absence of soluble proteins and insoluble proteins. In FIG. 3, M and 1 to 9 are as follows. M: molecular weight markers; 1: dnKAZ; 2: KAZ; 3: KAZ-V44I-A54I; 4: KAZ-V44I-Y138I; 5: KAZ-A54I-Y138I; 6: KAZ-V44I-A54I-Y138I; 7: KAZ-V44I; 8: KAZ-A54I; and 9: KAZ-Y138I.
The luminescence activities of 5 μL each of the supernatant and precipitate obtained in EXAMPLE 14 were determined in the same manner as EXAMPLE 5. The luminescence activity was assayed with a luminometer (manufactured by Atto Inc.: AB2200) for 60 seconds, and the maximum intensity of luminescence (Imax) was shown as relative luminescence activity.

Row | Molecule | Relative Luminescence Activity (Imax) [1] | Relative Luminescence Activity (Imax) (%) Cell Extracts [2] [%] | Relative Luminescence Activity (Imax) (%) Culture Medium [2] | Relative Luminescence Activity (Imax) Precipitate [3] | Relative Luminescence Activity (Imax) Supernatant [3]
1 | KAZ-I90V: KAZ with single amino acid substitution I90V (protein) FTLADFVGDWQQTAGYNQDQVLEQGGLSSLFQALGVSVTPIQKVVLSGENGLKADIHVIIPYEGLSGFQMGLIEMIFKVVYPVDDHHFKVILHYGTLVIDGVTPNMIDYFGRPYPGIAVFDGKQITVTGTLWNGNKIYDERLINPDGSLLFRVTINGVTGWRLCENILA | 1.8 | 0.3 | less than 0.01% | 0.4 | 2.1
2 | KAZ-P115E: KAZ with single amino acid substitution P115E (protein) FTLADFVGDWQQTAGYNQDQVLEQGGLSSLFQALGVSVTPIQKVVLSGENGLKADIHVIIPYEGLSGFQMGLIEMIFKVVYPVDDHHFKIILHYGTLVIDGVTPNMIDYFGRPYEGIAVFDGKQITVTGTLWNGNKIYDERLINPDGSLLFRVTINGVTGWRLCENILA | 4.5 | 0.3 | less than 0.01% | 1.1 | 16

Second part, led by results:

Row | Relative Luminescence Activity (Imax) [1] | Molecule | Relative Luminescence Activity (Imax) (%) Cell Extracts [2] [%] | Relative Luminescence Activity (Imax) (%) Culture Medium [2] | Relative Luminescence Activity (Imax) Precipitate [3] | Relative Luminescence Activity (Imax) Supernatant [3]
3 | 3.6 | KAZ-N166R: KAZ with single amino acid substitution N166R (protein) FTLADFVGDWQQTAGYNQDQVLEQGGLSSLFQALGVSVTPIQKVVLSGENGLKADIHVIIPYEGLSGFQMGLIEMIFKVVYPVDDHHFKIILHYGTLVIDGVTPNMIDYFGRPYPGIAVFDGKQITVTGTLWNGNKIYDERLINPDGSLLFRVTINGVTGWRLCERILA | 0.2 | less than 0.01% | 0.8 | 4.7
4 | 0.5 | KAZ-A4E: KAZ with single amino acid substitution A4E (protein) FTLEDFVGDWQQTAGYNQDQVLEQGGLSSLFQALGVSVTPIQKVVLSGENGLKADIHVIIPYEGLSGFQMGLIEMIFKVVYPVDDHHFKIILHYGTLVIDGVTPNMIDYFGRPYPGIAVFDGKQITVTGTLWNGNKIYDERLINPDGSLLFRVTINGVTGWRLCENILA | 0.1 | less than 0.01% | 0.2 | 1.5
5 | 3.7 | KAZ-Q124K: KAZ with single amino acid substitution Q124K (protein) FTLADFVGDWQQTAGYNQDQVLEQGGLSSLFQALGVSVTPIQKVVLSGENGLKADIHVIIPYEGLSGFQMGLIEMIFKVVYPVDDHHFKIILHYGTLVIDGVTPNMIDYFGRPYPGIAVFDGKKITVTGTLWNGNKIYDERLINPDGSLLFRVTINGVTGWRLCENILA | 0.3 | less than 0.01% | 0.8 | 7.4
